Assay results published in US20130102527A1.

Columns and labels:
[1] = molecular target: proteasome β5 subunit (chymotrypsin-like site) in human cells and cell extracts (human) (UniProt P28074); assay: cell-based or functional assay
[2] = molecular target: proteasome β2 subunit (trypsin-like site) in human cells and cell extracts (human) (UniProt Q99436); assay: cell-based or functional assay
[3] = molecular target: caspase-like site (β1 subunit) of 26S proteasomes purified from rabbit muscle (rabbit); assay: cell-based or functional assay
[4] = molecular target: proteasome β2 subunit (trypsin-like site) in human cells and cell extracts (human) (UniProt Q99436); assay: competition with activity-based probe in living HEK-293 cells, 4 h; Tr-L site
[5] = molecular target: proteasome β5 subunit (chymotrypsin-like site) in human cells and cell extracts (human) (UniProt P28074); assay: competition with activity-based probe in living HEK-293 cells, 4 h; Chym-L site
[6] = molecular target: proteasome β1 subunit (caspase-like site) in human cells and cell extracts (human) (UniProt P28072); assay: cell-based or functional assay
[7] = molecular target: chymotrypsin-like site (β5 subunit) of 26S proteasomes purified from rabbit muscle (rabbit) (UniProt G1T4Q9); assay: cell-based or functional assay
[8] = molecular target: trypsin-like site (β2 subunit) of 26S proteasomes purified from rabbit muscle (rabbit) (UniProt G1SWK8); assay: cell-based or functional assay
[9] = molecular target: caspase-like site (β1 subunit) of yeast 20S proteasome (S. cerevisiae) (UniProt P38624); assay: cell-based or functional assay
Sequence of caspase-like site (β1 subunit) of yeast 20S proteasome (S. cerevisiae) (P38624 20-215): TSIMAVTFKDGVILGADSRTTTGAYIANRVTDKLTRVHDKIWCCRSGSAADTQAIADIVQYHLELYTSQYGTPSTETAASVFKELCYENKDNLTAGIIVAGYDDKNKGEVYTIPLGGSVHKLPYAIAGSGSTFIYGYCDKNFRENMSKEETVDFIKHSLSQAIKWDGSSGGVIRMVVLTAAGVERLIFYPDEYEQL

Sequence of proteasome β2 subunit (trypsin-like site) in human cells and cell extracts (human) (Q99436 44-277): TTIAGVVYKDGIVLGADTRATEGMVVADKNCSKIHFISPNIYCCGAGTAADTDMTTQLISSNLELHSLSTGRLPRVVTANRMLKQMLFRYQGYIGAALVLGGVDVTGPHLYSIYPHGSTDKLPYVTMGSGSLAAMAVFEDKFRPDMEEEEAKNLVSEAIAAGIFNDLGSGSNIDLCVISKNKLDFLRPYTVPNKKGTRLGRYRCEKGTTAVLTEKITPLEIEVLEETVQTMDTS
Sequence of proteasome β5 subunit (chymotrypsin-like site) in human cells and cell extracts (human) (P28074 60-263): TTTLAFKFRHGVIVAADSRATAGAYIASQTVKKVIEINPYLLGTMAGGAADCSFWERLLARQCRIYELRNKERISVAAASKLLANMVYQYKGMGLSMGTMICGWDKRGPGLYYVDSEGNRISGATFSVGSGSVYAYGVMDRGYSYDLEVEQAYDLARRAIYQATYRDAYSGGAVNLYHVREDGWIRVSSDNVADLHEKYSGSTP
Sequence of trypsin-like site (β2 subunit) of 26S proteasomes purified from rabbit muscle (rabbit) (G1SWK8 entry or part of it): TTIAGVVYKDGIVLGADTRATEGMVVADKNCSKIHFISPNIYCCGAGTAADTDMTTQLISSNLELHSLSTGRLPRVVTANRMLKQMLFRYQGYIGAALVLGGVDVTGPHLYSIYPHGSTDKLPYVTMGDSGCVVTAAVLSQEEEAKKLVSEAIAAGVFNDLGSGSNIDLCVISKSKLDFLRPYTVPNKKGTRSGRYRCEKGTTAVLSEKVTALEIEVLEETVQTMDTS
Sequence of proteasome β1 subunit (caspase-like site) in human cells and cell extracts (human) (P28072 35-239): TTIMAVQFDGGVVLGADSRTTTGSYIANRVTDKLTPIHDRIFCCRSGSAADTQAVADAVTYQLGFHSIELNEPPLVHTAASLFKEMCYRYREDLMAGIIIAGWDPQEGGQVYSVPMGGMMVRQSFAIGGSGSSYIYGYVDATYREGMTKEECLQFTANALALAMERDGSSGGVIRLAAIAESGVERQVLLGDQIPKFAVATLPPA
Sequence of chymotrypsin-like site (β5 subunit) of 26S proteasomes purified from rabbit muscle (rabbit) (G1T4Q9 entry or part of it): as the sequence (P28074 60-263) above, with E197D counted along it

An Inhibition of active sites (% control): Chymotrypsin-like sites, 1 h; KMS-12-BM, 11 nM carfilzomib [1] of 75%, an Inhibition of active sites (% control): Chymotrypsin-like sites, 1 h; KMS-12-BM, 33 nM carfilzomib [1] of 90% and an Inhibition of active sites (% control): Chymotrypsin-like sites, 1 h; KMS-12-BM, 100 nM carfilzomib [1] of 95% were found for carfilzomib (peptide) in this work. The Inhibition of active sites (% control): Chymotrypsin-like sites, 1 h; KMS-12-BM, 300 nM carfilzomib [1] was 97%, the Inhibition of active sites (% control): Chymotrypsin-like sites, 1 h; KMS-12-BM, 900 nM carfilzomib [1] was 98% and the Inhibition of active sites (% control): Chymotrypsin-like sites, 1 h; NCI-H929, 3.7 nM carfilzomib [1] was 14%. It also gave an Inhibition of active sites (% control): Chymotrypsin-like sites, 1 h; NCI-H929, 11 nM carfilzomib [1] of 39%, an Inhibition of active sites (% control): Chymotrypsin-like sites, 1 h; NCI-H929, 33 nM carfilzomib [1] of 75% and an Inhibition of active sites (% control): Chymotrypsin-like sites, 6 h -NC-022; KMS-12-BM, 11 nM carfilzomib [1] of 67%. The Inhibition of active sites (% control): Chymotrypsin-like sites, 6 h -NC-022; KMS-12-BM, 33 nM carfilzomib [1] was 97%, the Inhibition of active sites (% control): Chymotrypsin-like sites, 6 h -NC-022; KMS-12-BM, 100 nM carfilzomib [1] was 97% and the Inhibition of active sites (% control): Chymotrypsin-like sites, 6 h -NC-022; KMS-12-BM, 300 nM carfilzomib [1] was 97%. It also gave an Inhibition of active sites (% control): Chymotrypsin-like sites, 6 h -NC-022; KMS-12-BM, 900 nM carfilzomib [1] of 97%, an Inhibition of active sites (% control): Chymotrypsin-like sites, 6 h -NC-022; NCI-H929, 3.7 nM carfilzomib [1] of 65.5% and an Inhibition of active sites (% control): Chymotrypsin-like sites, 6 h -NC-022; NCI-H929, 11 nM carfilzomib [1] of 89%. The Inhibition of active sites (% control): Chymotrypsin-like sites, 6 h -NC-022; NCI-H929, 33 nM carfilzomib [1] was 95%, the Inhibition of active sites (% control): Trypsin-like sites, 1 h; KMS-12-BM, 11 nM carfilzomib [2] was -3% and the Inhibition of active sites (% control): Trypsin-like sites, 1 h; KMS-12-BM, 33 nM carfilzomib [2] was 0%. It also gave an Inhibition of active sites (% control): Trypsin-like sites, 1 h; KMS-12-BM, 100 nM carfilzomib [2] of 18%, an Inhibition of active sites (% control): Trypsin-like sites, 1 h; KMS-12-BM, 300 nM carfilzomib [2] of 49% and an Inhibition of active sites (% control): Trypsin-like sites, 1 h; KMS-12-BM, 900 nM carfilzomib [2] of 75%. It also gave an Inhibition of active sites (% control): Trypsin-like sites, 1 h; NCI-H929, 3.7 nM carfilzomib [2] of -7%, an Inhibition of active sites (% control): Trypsin-like sites, 1 h; NCI-H929, 11 nM carfilzomib [2] of 0% and an Inhibition of active sites (% control): Trypsin-like sites, 1 h; NCI-H929, 33 nM carfilzomib [2] of 17%. The Inhibition of active sites (% control): Trypsin-like sites, 6 h -NC-022; KMS-12-BM, 11 nM carfilzomib [2] was 5%, the Inhibition of active sites (% control): Trypsin-like sites, 6 h -NC-022; KMS-12-BM, 33 nM carfilzomib [2] was 45% and the Inhibition of active sites (% control): Trypsin-like sites, 6 h -NC-022; KMS-12-BM, 100 nM carfilzomib [2] was 62%. It also gave an Inhibition of active sites (% control): Trypsin-like sites, 6 h -NC-022; KMS-12-BM, 300 nM carfilzomib [2] of 69%, an Inhibition of active sites (% control): Trypsin-like sites, 6 h -NC-022; KMS-12-BM, 900 nM carfilzomib [2] of 72% and an Inhibition of active sites (% control): Trypsin-like sites, 6 h -NC-022; NCI-H929, 3.7 nM carfilzomib [2] of 3%. For the same substance, the Inhibition of active sites (% control): Trypsin-like sites, 6 h -NC-022; NCI-H929, 11 nM carfilzomib [2] was 39% and the Inhibition of active sites (% control): Trypsin-like sites, 6 h -NC-022; NCI-H929, 33 nM carfilzomib [2] was 46%.
An IC50 (µM) for sites: Casp-L [3] of 30 µM was found for “N3-Phe-Ala(4-pyridine)-Leu-Phe(4-CH2NH2-TFA)-VS (50) (peptide)” in this work.
For “N3-Phe-Phe(4-NH2.TFA)-Leu-Phe(4-CH2NH2.TFA)-VS (51) (peptide)”, the IC50 [4] was 10 µM, the IC50 [5] was > 50 µM and the IC50 (µM) for sites: Chym-L; NCI-H929 cells, 6 h, PROTEASOMEGLO [1] was 3.6 µM. For the same substance, the IC50 (µM) for sites: Chym-L; RPMI-8226 cells, 6 h, PROTEASOMEGLO [1] was 7.2 µM, the IC50 (µM) for sites: Tr-L; NCI-H929 cells, 6 h, PROTEASOMEGLO [2] was 0.11 µM and the IC50 (µM) for sites: Tr-L; RPMI-8226 cells, 6 h, PROTEASOMEGLO [2] was 0.58 µM. For the same substance, the IC50 (µM) for sites: Casp-L; NCI-H929 cells, 6 h, PROTEASOMEGLO [6] was 22 µM, the IC50 (µM) for sites: Casp-L; RPMI-8226 cells, 6 h, PROTEASOMEGLO [6] was > 30 µM and the IC50 (µM) for sites: Chym-L [7] was 3.4 µM. The IC50 (µM) for sites: Tr-L [8] was 0.03 µM and the IC50 (µM) for sites: Casp-L [3] was 30 µM.
“N3-Phe-Phe(4-CH2NH2)-Leu-Phe(4-CH2NH2)-VS (52) (peptide)” was tested, and the IC50 [4] was 50 µM, the IC50 [5] was > 50 µM and the IC50 (µM) for sites: Chym-L [7] was 3.9 µM. For the same substance, the inhibition of caspase-like sites of yeast 20S proteasome [9] was > 200 µM and the IC50 (µM) for sites: Tr-L [8] was 0.0066 µM.
